The labels stand for the following.
B1: Fc polypeptide variant 3C11 (Fcγ1, in vitro translated) (other)
chain: AHTCPPCPAPELLGGPSVFLFPPKPKDTLMISRTPEVTCVVVDVSHEDPEVKFNWYVDGVEVHNAKTKPREEQYNSTYRVVSVLTVLHQDWLNGKEYKCKVSNKALPAPIEKTISKAKGQPREPRVYTLPPSREEMTKYQVSLTCLVKGFYPSDIAVEWESNGQPENNYKTTPPVLDSDGSFFLYSKLTVDKSRWQQGNVFSCSVMHEALHNHYTQRSLSLSPGK
notes: Fc region only, in vitro translated with 35S-methionine for RIA
B2: Fc polypeptide variant 2H06 (Fcγ1, in vitro translated) (other)
chain: AHTCPPCPAPELLGGPSVFLFPPKPKDTLMISRTPEVTCVVVDVSHGDPEVKFNWHVDGVEVHNAKTKPREEQYNSTYRVVSVLTVLHQDWLNGKEYKCKVSSKALPAPIEKTISKAKGQPREPQVYTLPPSREEMTKNQVSLTCLVRGFYPSDIAVEWESNGQPENNYKTTPPVLDSDGSFFLYSKLTVDKSRWQQGNVFSCSVMHEALHNHYTQKSLSLSPGK
notes: as for B1
B3: Fc polypeptide variant 2A11 (Fcγ1, in vitro translated) (other)
chain: AHTCPPCPAPELLGGPSVFLFPPKPKDTLMISRTPEVTYVVVDVSHEDPEVKFNWYVDGVEVHNAKTEPREEQYNSTYRVVSVFTVLHRDWLNGKEYKCKVSNKALPAPIGKTISKAKGQPREPQVYTLPPSREEMTKNQVSLTCLVKGFYPSDIAVEWESNGQPENNYKTTPPVLDSDGSFFLYSKLTVDKSRWQQGNVFSCSVMHEALHNHYTLKSLSLSPGK
notes: as for B1
B4: Fc polypeptide variant 2C06 (Fcγ1, in vitro translated) (other)
chain: AHTCPPCPAPELLGGPSVFLFPPKPKDTLMISRTPEVTCVVVDVSHEDPEVKFNWYVDGVGVHNAKTKPREEQYNSTYRVVSVLTVLHQDWLKGKEYKCKVSNKALPAPIGKTISKAKGQPQEPQVYTLPPSREEMTKNQVSPTCLVKGFYPSDIAVEWESNGQPENNYKTTPPVLDSDGSFFLYSKLTVDKSRWQQGNVFSCSVMHEALHNHYTQKSLTLSPGK
notes: as for B1
B5: Fc polypeptide variant 136D04b (Fcγ1, in vitro translated) (other)
chain: AHTCPPCPAPELLGGPSVFLFPPKPKDTLMISRTPEVTCVVVDVSHEDPEVKFNWYVDGVEVHNAKTKPREEQYNSTYRVVSVLTVLHQDWLNGKEYKCKVSNKALPAPIEKIISKAKGQPREPQVYTLPPSREEMTKNQVSLTCLVKGFYPSDIAVEWESNGQPENNYKTTPPVLDSDGSFFLYSKLTVDMSRWQQGNVFSCSVMHEALHNHYTQKSLSLSPGK
notes: as for B1
B6: Fc polypeptide variant 125H10 (Fcγ1, in vitro translated) (other)
chain: AHTCPPCPAPELLGGPSVFLFPPKPKDTLTISRTPEVTCVVVDVSHEDPEVKFNWYVDGVEVHNAKTKLREEQYNSTYRVVSVLTVLHQDWLNGKEYKCKVSNKALPAPIEKTISKAKGQPREPQVYTLAPSWEEMTKNQVSLTCLVKGFYPSDIAVEWESNGQPENDYKTTPPVLDSDGSFFLYGKLTVDKSRWQQGNVFSCFVMHESLHNHYTQKSLSLSPGK
notes: as for B1
B7: Fc polypeptide variant 125B01 (Fcγ1, in vitro translated) (other)
chain: ANTCPPCPAPELLGGPSVFLLPPKPKDTLMISRTPEVTCVVVDVSHEDPEVKFNWYVDGVEVHNAKTKPREEQYNSTYRVVSVLTVLHQDWLNGKEYKCKVSNKALPAPIEKTISKAKGQPREPQVYTLPPSREEMTKNQVSLTCLVKGFYPSDIAVEWESNGQPENNYKATPPVLDSDGSFFLYSKLTVDKSRWQQGNVFSCSVMHEALPNHYTQKSLSLSPGK
notes: as for B1
B8: Fc polypeptide variant 125E05 (Fcγ1, in vitro translated) (other)
chain: AHTCPPCPAPELLGGPSAFLFPPKPKDTLMISRTPEVTCVVVDVGHEDPEVKFNWYVDGVEVHNAKTKPREEQYNSTYRVVSVLTVLHQDWLNGKEYKCKVSNKALPAPIEKTISKAKEQPREPQVYTLPPSRGEMTKNQVSLTCLVKGFYPSDIAVEWESNGQPENNYKTTPPVLDSDGSFFLYSKLTVDKSRWQQGNVFSCSVMHEALHNHYTQKSLSLSPGK
notes: as for B1
B9: Fc polypeptide variant 135E07 (Fcγ1, in vitro translated) (other)
chain: AYTCPPCSAPELLGGPSVFLFPPKPKDTLMISRTPEVTCVVVDVSHEDPEVKFNWYVDGVEVHNAKTKPREEQYNSTYRVVSVLTVLHQDWLNGKEYKCKASNKALPAPIDKTISRAKGQPREPQVYTLPPSREEMTKNQVCLTCLVKGFYPSDIAVEWESNGQPENNYKTTPPVLDSDGSFFLYSKLTVDKSRWQQGNVFSCSVMHEALHNHYTQKSLSLSPGK
notes: as for B1
B10: Fc polypeptide variant 126G05 (Fcγ1, in vitro translated) (other)
chain: AHTCPPCPAPELLGGPSVLLFPPKPKDTLMISRTPEVTCVVVDVSHEDPEAKFNWYVDGVEVHNAKTKPREEQYNSTYRVVSVLTVLHQDWLNGKEYKCKVSNKALPAPIEKTISKAQGQPREPQVYTLPPSREEMTKNQVSLTCLVKGFYPSDIAVEWESNGQPENNYKTTPPVLDSDGSFFLYSKLTVDKSRWQQGNVFSCSVMHEALHNHYTQKSFSLSPGK
notes: as for B1
B11: Fc polypeptide variant 135A09 (Fcγ1, in vitro translated) (other)
chain: AHTCPPCPAPELLGGPSVFLFPPKPKDTLMISRTPEVTCVVVDVSHKDPEVKFNWYVDGVEVHNAKTKPREEQYNSTHRVVSVLTVLHQDWLNGKEYKCKVSNKALPAPIEKTISKAKGRPREPQVYTLPPSREEMTKNQVSLTCLVKGFYPSDIAVEWESNGQPENNYKTTPPVLDSDGSFFLYSKLTVDKSRWQQGNIFSCSVMHEALHNHYTQKSLSLSPAK
notes: as for B1
B12: Fc polypeptide variant 136G11 (Fcγ1, in vitro translated) (other)
chain: AHTCPPCPAPELLGGPSVFLFPPKAKDTLMISRTPKVTCVVVDVSHEDPEVKFNWYVNGVEVHNARTKPREEQYDSAYRVVSVLTVLHQDWLNGKEYKCEVSNKALPAPIEKTISKAKGRPREPQVYTLPPAREEMTKNQVSPTCLVKGFYPSDIAVEWESNGQPENNYKTTPPVLDSDGSFFLYSKLTVDKSRWQQGNVFSCSVMHEALHNHYTQKSLSLSPGK
notes: as for B1
B13: Fc polypeptide variant 110B09 (Fcγ1, in vitro translated) (other)
chain: AHTCPPCPAPELLGGPSVFLFPPKPKDTLMISRTPEVTCVVVDVSHEDPEVKFDWYVDGVEVHNAKTKPQEEQYNSTYRVVSALTVLHQDWLNGKEYKCKVSNKALPAPIEKTISKAKGQPREPQVYTLPPSREEMTKNQVSLTCLVKGFYPSDVAVEWESNGQPENNYKTAPPVLDSDGSFFLYSKLTADKSRWQQGNVFSCSVMHEALHNHYTQESLSLSPGK
notes: as for B1
B14: Fc polypeptide variant 121F02 (Fcγ1, in vitro translated) (other)
chain: AHTCPPCPAPELLGGPSVFLSPPKLKDTLMISRTPEVTCVVVVASHEDPEVKFNWYVDGVEVHNAKTKPREEQYNSTYRVVSVLTVLHQDWLNGKEYKCKVSNKALPAPIEKTISKAKGQPREPQVYTLPPSREEMTKNQVSLTCLVKGFYPSDIAVEWENNGQPENNYKTTPPVLDSDGSFFLYSKLIVDKSRWQQGNVFSCSVMHEALHNHYTQKSLSLSPGK
notes: as for B1
B15: Fc polypeptide variant 110H08 (Fcγ1, in vitro translated) (other)
chain: AHTCPPCPAPELLGGPSVFLFLPEPKDTLMISRTPEVTCVVVDVSHEDPEVKFNWYVDGVEVHNAKTKPREEQYNSTYRVVSVLTVLHQDWLNGKEYKCKVSNKALPAPIEKTISKAKGQPREPQVYTLPPSREEMTKNQVSLTCLVKGFYPSDIAVEWESNGQPENNYKTTPPVLGSDGSFFLYSRLTVDKSRWQQGNVFSCSVMHEALHNHYTQKSLSLSPGK
notes: as for B1
B16: Fc polypeptide variant 135C09 (Fcγ1, in vitro translated) (other)
chain: AHACPPCPAPELLGGPSVFLFPPKPKDTLMISRTPEVTCVVVDVSHEDPEVKFNWYVDGVEVHNAKTKPREEQYNSTYCVVGVLTVLHQNWLDGKEYKCKVSNKALPAPIEKTISKAKGQPREPQVYTSPPSREEMTKNQVSLTCLVKGFYPSDIAVEWESNGQPENNYKTTPPVLDSDGSFFLYSKLTVDKSRWQQGSVFSCSVMHEALHNHYTQKSLSLSPGK
notes: as for B1
B17: Fc polypeptide variant 136D04a (Fcγ1, in vitro translated) (other)
chain: AHTCPPCPAPELLGGPSVFLFPPKPKDTLMISRTPEVTCVVVDVSHEDPEVKFNWYVDGVEVHNAKTKPREEQYNSTYRVVSVLTVLHQDWLNGKEYKCKVSNKALPAPIEKIISKAKGQPREPQVYTLPPSREEMTKNQVSLTCLVKGFYPSDIAVEWESNGQPENNYKTTPPVLDSDGSFFLYSKLTVDMSRWQQGNVFSCSVMHEALHNHYTQKSLSLSRGK
notes: as for B1
B18: Fc polypeptide variant 126F07 (Fcγ1, in vitro translated) (other)
chain: AHTCPLCPAPELLGGPSVFLFPPKPKDTLMISRTPEVTCVVVDVSHEDPEVKFNWYVDGVEVHNAKAKPREEQYNSTYRVVSVLTVLHQDWLNGKEYKCKVSNKALPAPIEKTISKAKGQPREPQVYTLPPSREEMTKNQVSQTCLVKGFYPSDIAVEWESNGQPESNYKTTPPVLDSDGSFFLYSKLTVDKSRWQQGNVFSCSVMHEALHNHYTQKGLSLSPGK
notes: as for B1

T2 sequence (P08637 17-208 F176V): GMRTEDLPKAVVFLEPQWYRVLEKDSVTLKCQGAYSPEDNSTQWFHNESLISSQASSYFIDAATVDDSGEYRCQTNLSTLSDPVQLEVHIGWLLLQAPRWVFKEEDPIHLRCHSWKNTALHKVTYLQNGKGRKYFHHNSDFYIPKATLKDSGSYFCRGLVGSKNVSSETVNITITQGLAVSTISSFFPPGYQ
T1 sequence (P02745 23-245 limits assumed, chain 1 of 3): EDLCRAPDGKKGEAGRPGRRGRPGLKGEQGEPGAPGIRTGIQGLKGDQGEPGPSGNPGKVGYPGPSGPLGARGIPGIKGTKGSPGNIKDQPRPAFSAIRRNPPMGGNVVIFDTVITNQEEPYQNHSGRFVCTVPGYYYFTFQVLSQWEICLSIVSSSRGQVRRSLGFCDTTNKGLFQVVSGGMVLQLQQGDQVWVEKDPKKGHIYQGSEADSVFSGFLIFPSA
T1 sequence (P02746 28-253 limits assumed, chain 2 of 3): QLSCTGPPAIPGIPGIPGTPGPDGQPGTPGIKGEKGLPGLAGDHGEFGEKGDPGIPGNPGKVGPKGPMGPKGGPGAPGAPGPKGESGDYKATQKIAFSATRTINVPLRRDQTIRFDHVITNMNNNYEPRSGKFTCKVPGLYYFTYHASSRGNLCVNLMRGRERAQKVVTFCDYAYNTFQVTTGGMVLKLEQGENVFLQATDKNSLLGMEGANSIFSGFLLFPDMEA
T1 sequence (P02747 29-245 limits assumed, chain 3 of 3): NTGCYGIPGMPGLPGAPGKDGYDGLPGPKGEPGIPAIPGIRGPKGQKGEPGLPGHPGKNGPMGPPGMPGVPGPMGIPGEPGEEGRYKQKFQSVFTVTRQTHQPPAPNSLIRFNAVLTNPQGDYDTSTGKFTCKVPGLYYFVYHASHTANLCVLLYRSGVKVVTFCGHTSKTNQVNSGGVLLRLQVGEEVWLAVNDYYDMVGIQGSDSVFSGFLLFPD

The first assay has as its target T1, human C1q (human, UniProt P02745 23-245; P02746 28-253; P02747 29-245).
T1 construct: Human C1q (Sigma) in the ELISA; hC1q coated at 100 nM in the RIA; also called hC1q
Briefly: RIA, 35S-labelled Fc on coated C1q. From the text: IgG1 Fc variants arising from round three outputs of Fcγ1 selections against human C1q using ribosome display, were screened for binding using the primary RIA as described in Jermutus et al. (2001, PNAS 98(1): 75-80). In brief, the Fc region from the plasmid for each variant (96 well format) was PCR amplified to produce a linear DNA template. This template was gel purified and reamplified attaching the T7 promoter sequence for T7 directed in vitro transcription and the resulting mRNA purified on G25 Sephadex columns. For each variant, in vitro translations in the presence of 35S-labelled methionine was performed at 37° C. for 40 mins. The translations were stopped with PBS with 0.05% Tween 20. The translation mixture was incubated on a plate coated with 100 nM hC1q for 2 hours at room temperature. Plates were washed three times in PBS with 0.05% Tween 20 and three times in PBS. The remaining radioactivity was eluted with 0.1M triethylamine and quantified by liquid scintillation counting.
Turning to B1, the “RIA for C1q” value worked out at 1.2 fold over wild-type.
The same measure, in the same setting: with B2 the figure was 1.2 fold over wild-type; with B3, 2.4 fold over wild-type; with B4, 1.4 fold over wild-type.

Another assay concerns the target T2, human FcγRIIIa V158 allotype, extracellular domain (human, UniProt P08637 17-208).
T2 construct: extracellular domain; expressed in HEK-EBNA cells; also called hFcγRIIIa; CD16; not shown: Flag10His tag of the vector
The assay is described as follows: RIA, 35S-labelled Fc on coated receptor. From the text: Fc polypeptide variants were screened for binding to FcγRIIIa using a RIA (radio immunoassay) as described in Jermutus et al. (2001, PNAS 98(1): 75-80). The Fc region from the plasmid for each variant was PCR amplified to produce a linear DNA template. This template was purified and a T7 promoter sequence attached at the 5′ end to enable in vitro transcription. The resulting mRNA was purified using G25 Sephadex™ columns. For each variant, in vitro translations in the presence of 35S-labelled methionine were set up at 37° C. for 40 min. The translations were stopped using PBS with 0.05% Tween 20. The translation mixture was added to a plate coated with 100 nM hFcγRIIIa and incubated for 2 hours at room temperature. The plates were washed three times in PBS with 0.05% Tween 20 and three times in PBS. The bound protein was eluted with 0.1M triethylamine and the radiolabel quantified by liquid scintillation counting.
For B5, the “RIA for RIIIa (V158)” value is 2.3 fold over wild-type.
Regarding B6, the “RIA for RIIIa (V158)” value was determined as 1.7 fold over wild-type.
On the same count and under the same terms, with B7 the figure was 1.3 fold over wild-type; with B8, 4.7 fold over wild-type.
On to B9, for which the “RIA for RIIIa (V158)” value stood at 1.7 fold over wild-type.
Still for that read-out and setting: then B10, with 1.8 fold over wild-type.
Same read-out and setting: with B11 the figure was 3.4 fold over wild-type; with B12, 2.3 fold over wild-type; with B13, 4.4 fold over wild-type.
Same read-out and setting: with B14 the figure was 1.7 fold over wild-type; with B15, 2.7 fold over wild-type; with B16, 1.7 fold over wild-type.
B17: the “RIA for RIIIa (V158)” value was determined as 2.3 fold over wild-type.
The same measure, in the same setting: then B18, with 1.9 fold over wild-type.

Values taken from US20100184959A1 (AstraZeneca / MedImmune, published 2010).
